Reference: US7067474B1, “Agents for treating human illnesses based on β-catenin, and the production and use thereof” (Max-Delbruck-Centrum fur Molekulare Medizin, priority 1998, dated 2006)

Key:
Assay in all cases: yeast 2-hybrid; - means 60-100% of the wild type interaction
[1] = biological target: T1, human β-catenin (Leu218-Leu781) mutant Lys 394 to alanine, Gal-4 activation domain fusion (human, UniProt P35222 218-781)
T1 sequence: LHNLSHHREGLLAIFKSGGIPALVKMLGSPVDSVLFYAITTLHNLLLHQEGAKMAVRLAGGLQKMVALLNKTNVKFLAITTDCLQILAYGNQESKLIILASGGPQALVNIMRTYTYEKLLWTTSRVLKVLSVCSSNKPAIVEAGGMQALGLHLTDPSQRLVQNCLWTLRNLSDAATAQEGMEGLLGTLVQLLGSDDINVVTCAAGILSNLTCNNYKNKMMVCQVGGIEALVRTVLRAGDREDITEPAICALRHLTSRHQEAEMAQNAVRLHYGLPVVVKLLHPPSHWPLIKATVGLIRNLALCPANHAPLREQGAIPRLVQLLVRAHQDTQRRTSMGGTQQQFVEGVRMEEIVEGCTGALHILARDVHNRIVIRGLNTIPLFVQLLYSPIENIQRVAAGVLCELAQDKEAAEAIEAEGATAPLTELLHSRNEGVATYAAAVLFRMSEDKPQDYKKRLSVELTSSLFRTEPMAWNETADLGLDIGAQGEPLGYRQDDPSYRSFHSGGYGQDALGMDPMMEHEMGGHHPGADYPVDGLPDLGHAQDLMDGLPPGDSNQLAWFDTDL
Method: (§1) 4. Preparation and testing of mutants of β-catenin modulating the interaction with LEF-1, APC, conductin or E-cadherin The mutagenesis of β-catenin in the armadillo repeats 3–8 was carried out by means of the "mutagenesis kit" of the company Clontech according to the producer's record and the mutants were checked by sequencing (FIG. 5). In all mutants the original amino acid was substituted by alanine. For analyzing the interactions the cDNA of human β-catenin (armadillo repeat 3 up to the C-terminal end of the protein) coding for the amino acids Leu218–Leu7 µl or its mutants was cloned into the fusion vector for the activation domain of Gal-4 (pGAD424, Clontech). The cDNA for the binding domains of the interaction partners was cloned into the Lex-A fusion vector BTM 116. To this end, the cDNA of LEF-1 for the amino acids 1–99, conductin for the amino acids Ala342–ARG465; of human APC for the amino acids His1012–Glu1215 (APC 15 amino acid repeats) and for the amino acids Ser1259Asp 1400 (APC 20 amino acid repeats) and E-cadherin for the amino acids Gin773–Asp884 (cytoplasmatic domain) were amplified with the respective primers PCR. The interaction of the Lex-A hybrids with β-catenin and its mutants was quantified by means of the β-galactosidase reporter activity in the yeast 2-hybrid system (report: "Matchmaker". Clontech) (Tab. 2 and FIG. 6).

[2] = biological target: T2, human β-catenin (Leu218-Leu781) mutant Arg 457 to alanine, Gal-4 activation domain fusion (human, UniProt P35222 218-781)
T2 sequence: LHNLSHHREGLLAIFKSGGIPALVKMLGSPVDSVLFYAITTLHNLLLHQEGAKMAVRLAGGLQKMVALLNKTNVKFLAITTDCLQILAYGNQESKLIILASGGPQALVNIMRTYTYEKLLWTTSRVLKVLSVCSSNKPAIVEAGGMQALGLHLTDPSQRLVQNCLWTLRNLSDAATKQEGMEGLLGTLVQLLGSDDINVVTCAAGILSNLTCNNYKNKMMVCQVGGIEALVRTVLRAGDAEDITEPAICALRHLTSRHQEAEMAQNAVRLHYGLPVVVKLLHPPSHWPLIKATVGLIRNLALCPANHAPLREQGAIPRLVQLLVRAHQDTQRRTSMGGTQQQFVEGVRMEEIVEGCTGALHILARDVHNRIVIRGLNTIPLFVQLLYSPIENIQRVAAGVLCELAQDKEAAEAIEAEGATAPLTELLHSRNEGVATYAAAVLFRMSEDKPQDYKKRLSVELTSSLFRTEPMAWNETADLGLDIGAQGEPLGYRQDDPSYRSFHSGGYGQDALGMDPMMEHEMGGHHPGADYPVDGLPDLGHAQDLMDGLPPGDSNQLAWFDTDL
Method: as §1

[3] = biological target: T3, human β-catenin (Leu218-Leu781) mutant Arg 342 to alanine, Gal-4 activation domain fusion (human, UniProt P35222 218-781)
T3 sequence: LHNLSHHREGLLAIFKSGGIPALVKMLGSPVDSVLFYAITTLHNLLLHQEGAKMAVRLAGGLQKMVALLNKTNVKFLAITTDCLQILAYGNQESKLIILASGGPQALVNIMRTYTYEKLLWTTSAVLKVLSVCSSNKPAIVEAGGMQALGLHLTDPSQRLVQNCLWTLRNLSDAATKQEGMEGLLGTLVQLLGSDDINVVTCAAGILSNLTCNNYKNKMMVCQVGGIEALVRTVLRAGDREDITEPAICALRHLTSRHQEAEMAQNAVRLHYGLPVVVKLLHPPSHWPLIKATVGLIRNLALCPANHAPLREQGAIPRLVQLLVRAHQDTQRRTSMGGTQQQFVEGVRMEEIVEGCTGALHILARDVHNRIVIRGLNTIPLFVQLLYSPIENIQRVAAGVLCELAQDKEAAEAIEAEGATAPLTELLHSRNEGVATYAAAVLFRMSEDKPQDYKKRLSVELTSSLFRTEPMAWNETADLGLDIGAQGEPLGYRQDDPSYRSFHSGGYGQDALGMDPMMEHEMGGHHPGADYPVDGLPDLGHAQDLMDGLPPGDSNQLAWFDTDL
Method: as §1

binding result [1]: binds | binding result [2]: binds | binding result [3]: binds
B1: LEF-1 amino acids 1-99 fused to Lex-A (vector BTM 116) (other, UniProt P0A7C2 1-202, looked up)
chain: MKALTARQQEVFDLIRDHISQTGMPPTRAEIAQRLGFRSPNAAEEHLKALARKGVIEIVSGASRGIRLLQEEEEGLPLVGRVAAGEPLLAQQHIEGHYQVDPSLFKPNADFLLRVSGMSMKDIGIMDGDLLAVHKTQDVRNGQVVVARIDDEVTVKRLKKQGNKVELLPENSEFKPIVVDLRQQSFTIEGLAVGVIRNGDWLMPQLSGGGGGGDPELCATDEMIPFKDEGDPQKEKIFAEISHPEEEGDLADIKSSLVNESEIIPASNGHEVVRQAPSSQEPYHDKAREHPDEGKHPDGGL
notes: Order of the fusion follows the vector; also called LEF-1/TCF-4
